# Experimental data: publication PMC9396398, “Crystal structure of Ankyrin-G in complex with a fragment of Neurofascin reveals binding mechanisms required for integrity of the axon initial segment” (The Journal of Biological Chemistry, 2022)
# B1: Nfasc 1198 to 1214 WT [not stated] / AnkG ANK repeats (residues 38-855, R1-24) [not stated] (parent)
# chain 1: GEGQFNEDGSFIGQYTV
# chain 2: KSDANASYLRAARAGHLEKALDYIKNGVDVNICNQNGLNALHLASKEGHVEVVSELLQREANVDAATKKGNTALHIASLAGQAEVVKVLVTNGANVNAQSQNGFTPLYMAAQENHLEVVRFLLDNGASQSLATEDGFTPLAVALQQGHDQVVSLLLENDTKGKVRLPALHIAARKDDTKAAALLLQNDTNADIESKMVVNRATESGFTPLHIAAHYGNINVATLLLNRAAAVDFTARNDITPLHVASKRGNANMVKLLLDRGAKIDAKTRDGLTPLHCGARSGHEQVVEMLLDRAAPILSKTKNGLSPLHMATQGDHLNCVQLLLQHNVPVDDVTNDYLTALHVAAHCGHYKVAKVLLDKKANPNAKALNGFTPLHIACKKNRIRVMELLLKHGASIQAVTESGLTPIHVAAFMGHVNIVSQLMHHGASPNTTNVRGETALHMAARSGQAEVVRYLVQDGAQVEAKAKDDQTPLHISARLGKADIVQQLLQQGASPNAATTSGYTPLHLSAREGHEDVAAFLLDHGASLSITTKKGFTPLHVAAKYGKLEVASLLLQKSASPDAAGKSGLTPLHVAAHYDNQKVALLLLDQGASPHAAAKNGYTPLHIAAKKNQMDIATSLLEYGADANAVTRQGIASVHLAAQEGHVDMVSLLLSRNANVNLSNKSGLTPLHLAAQEDRVNVAEVLVNQGAHVDAQTKMGYTPLHVGCHYGNIKIVNFLLQHSAKVNAKTKNGYTPLHQAAQQGHTHIINVLLQNNASPNELTVNGNTALAIARRLGYISVVDTLKVVTEEIMTTTTITEKHKMNVPETMNEVLDMS
# B2: AnkG ANK repeats (residues 38-855, R1-24) [not stated] / Nfasc ankyrin-binding domain (ABD, residues 1187-1214) [not stated] (parent)
# chain 1: SDDSLVDYGEGGEGQFNEDGSFIGQYTV
# chain 2: B1 chain 2
# Variants of: B1
# Experiment: ITC
# Conditions: with AnkG ANK repeats (residues 38-855, R1-24); parent: 1
row,Variant,ratio to parent
1,chain 1 S10A,4
2,chain 1 D8A,4
3,chain 1 N6A,1
4,chain 1 T16A,1
5,chain 1 F11Q,4

# Second part, the variant after the results:
row,ratio to parent,Variant
1,23,chain 1 D8K
2,3,chain 1 I12Q

# Variants of: B2
# Experiment: ITC
# Conditions: with Nfasc ankyrin-binding domain (ABD, residues 1187-1214); parent: 1
row,Variant,ratio to parent
1,chain 2 V245Q,6
2,chain 2 R281A Q314A,3
3,chain 2 T302A N304A,11
4,chain 2 H347A,8

# Other lines, results leading:
row,ratio to parent,Variant
1,8,chain 2 M311Q
2,14,chain 2 I240Q L273Q
